Legend:
[1] = target: GPC3ΔGPI-FLAG重组蛋白 (Homo sapiens (Human)) (UniProt P51654); assay: ELISA on coated GPC3ΔGPI-FLAG after 2 h treatment of the antibody at pH 2
[2] = target: GPC3ΔGPI-FLAG重组蛋白 (Homo sapiens (Human)) (UniProt P51654); assay: ELISA on coated GPC3ΔGPI-FLAG after 2 h treatment of the antibody at pH 10
[3] = target: mCherry-GPC3 (on stably expressing HEK293T cells) (UniProt P51654); assay: immunofluorescence colocalisation on HEK293T cells expressing mCherry-GPC3

| Molecule | 抗原结合能力下降 (A450 against pH 7), antibody treated at pH 2 [1] | 抗原结合能力下降 (A450 against pH 7), antibody treated at pH 10 [2] | 皮尔森相关系数 (Pearson correlation of mCherry and Alexa Fluor 488 signals) [3] |
| --- | --- | --- | --- |
| HN3-hFc融合抗体 (Fc fusion) | 47.9% | 28.2% | – |
| 纳米抗体G10 (G10-His, GPC3 nanobody) (VHH, not shown: small tags and cut ends) VHH: QVQLVESGGALVQPGGSLRLSCAASGMTGIFWRLRWYRQAPGKEREWVCGISQLPTPASYEDSVKGRFTCSRDDARNTVYLQLNSLKPEDTAVYYCAAANVLPGLPAELPIYWGQGTQVTVSS | 26.1% | 14.4% | 0.94 |

— CN111848803A
